This passage reports Kd, binding signal and binding signal (% of bound DNA released) results from article PMC8210318.

For data set [1], the target named is T1, RPA heterotrimer (UniProt P27694+P15927+P35244). As to the kind of experiment: fluorescence anisotropy. To be noted: EMSA: 10 mM Tris pH 7.5, 50 ug/ml BSA, 5% glycerol, 25 mM DTT, 37 C 10 min, 25 nM DNA, 5% TBE gel, anisotropy: same buffer, 30 C.
Data set [2] addresses T1, RPA heterotrimer. As to the kind of experiment: EMSA. Conditions: 25 nM DNA, EMSA: 10 mM Tris pH 7.5, 50 ug/ml BSA, 5% glycerol, 25 mM DTT, 37 C 10 min, 5% TBE gel.

T1 sequence (P27694 whole entry, chain 1 of 3): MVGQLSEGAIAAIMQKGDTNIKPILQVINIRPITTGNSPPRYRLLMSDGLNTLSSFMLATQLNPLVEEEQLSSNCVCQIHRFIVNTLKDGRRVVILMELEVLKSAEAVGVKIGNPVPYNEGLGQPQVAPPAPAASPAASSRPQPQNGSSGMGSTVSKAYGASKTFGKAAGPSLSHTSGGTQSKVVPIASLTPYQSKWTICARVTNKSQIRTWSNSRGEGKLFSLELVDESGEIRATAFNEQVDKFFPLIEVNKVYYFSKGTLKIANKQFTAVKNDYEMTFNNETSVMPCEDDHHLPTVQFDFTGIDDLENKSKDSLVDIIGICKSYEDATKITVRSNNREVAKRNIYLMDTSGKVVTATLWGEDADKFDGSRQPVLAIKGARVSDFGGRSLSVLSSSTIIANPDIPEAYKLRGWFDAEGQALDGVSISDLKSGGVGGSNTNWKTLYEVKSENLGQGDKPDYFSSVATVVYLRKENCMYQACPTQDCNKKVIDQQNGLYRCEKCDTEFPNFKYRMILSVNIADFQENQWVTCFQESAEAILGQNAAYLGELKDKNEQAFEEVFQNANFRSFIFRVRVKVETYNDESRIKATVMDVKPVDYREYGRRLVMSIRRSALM
T1 sequence (P15927 whole entry, chain 2 of 3): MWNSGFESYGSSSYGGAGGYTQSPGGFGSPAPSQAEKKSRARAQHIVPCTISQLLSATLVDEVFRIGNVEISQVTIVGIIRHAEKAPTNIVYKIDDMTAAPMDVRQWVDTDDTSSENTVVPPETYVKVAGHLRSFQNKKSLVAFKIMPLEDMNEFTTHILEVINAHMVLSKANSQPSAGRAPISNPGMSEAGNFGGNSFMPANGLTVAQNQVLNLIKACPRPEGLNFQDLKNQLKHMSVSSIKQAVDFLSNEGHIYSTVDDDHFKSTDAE
T1 sequence (P35244 whole entry, chain 3 of 3): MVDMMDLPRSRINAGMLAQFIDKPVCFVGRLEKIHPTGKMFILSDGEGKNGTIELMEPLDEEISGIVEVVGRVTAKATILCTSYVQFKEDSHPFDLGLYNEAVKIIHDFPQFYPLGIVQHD

With “GTCGGATCCTCTAGACAGCATCCATGATCACTGGCACTGGTAGAATTCGGC / CAACGTCATAGACGATTACATTGCTACATGGATGCTGTCTAGAGGATCCGA [fork-2 fluorescein]”, the dissociation constant Kd in the data set with RPA heterotrimer [1] (with 500 nM BSA as control) stood at 45.2 nM; with RPA heterotrimer [1] (with 500 nM N-HelQ, which displaces RPA), 237 nM.
Turning to “GTCGGATCCTCTAGACAGCATCCATGATCACTGGCACTGGTAGAATTCGGC / CAACGTCATAGACGATTACATTGCTACATGGATGCTGTCTAGAGGATCCGA [fork-2]”, the binding signal in the data set with RPA heterotrimer [2] (12.5 nM RPA, anisotropy: same buffer, 30 C) was determined as 100 % bound. For the same sequence, the binding signal (% of bound DNA released) with RPA heterotrimer [2] (N-HelQ titrated (up to 500 nM), anisotropy: same buffer …) came to 40.
